According to paper PMC3486911 (PLoS Pathogens, 2012):

Experiments:
[1] = target: Factor H binding protein, variant group 1 (V1.p1), wild type (Neisseria meningitidis) (UniProt Q9JXV4); assay: SPR
[2] = target: Factor H binding protein, variant group 2 (V2.p21), wild type (Neisseria meningitidis) (UniProt E6MV22); assay: SPR
[3] = target: V2 fHbp Thr304Glu (Neisseria meningitidis); assay: SPR
[4] = target: V1 fHbp with Val272 replaced by Ala (Neisseria meningitidis); assay: SPR
[5] = target: Factor H binding protein, variant group 3 (V3.p28), wild type (Neisseria meningitidis) (UniProt E6MV22); assay: SPR
[6] = target: V2 fHbp with Val272 replaced by Ala (Neisseria meningitidis); assay: SPR
[7] = target: V1 fHbp I311A (Neisseria meningitidis); assay: SPR
[8] = target: V3 fHbp with Val272 replaced by Ala (Neisseria meningitidis); assay: SPR
[9] = target: V2 fHbp with Leu195 replaced by Ala (Neisseria meningitidis); assay: SPR
[10] = target: V1 fHbp E283A (Neisseria meningitidis); assay: SPR
[11] = target: V2 fHbp Glu283Ala (Neisseria meningitidis); assay: SPR
[12] = target: V3 fHbp P106A (Neisseria meningitidis); assay: SPR
[13] = target: V2 fHbp Thr304Ala (Neisseria meningitidis); assay: SPR
[14] = target: V2 fHbp with Glu313 replaced by Ala (Neisseria meningitidis); assay: SPR
[15] = target: V2 fHbp with Ala at position 157 (Neisseria meningitidis) (UniProt E6MV22); assay: SPR
[16] = target: Factor H binding protein, variant group 3 (V3.p28), wild type (UniProt E6MV22); assay: SPR
[17] = target: Factor H binding protein, variant group 2 (V2.p21), wild type (UniProt E6MV22); assay: SPR
[18] = target: T1, Factor H binding protein, variant group 1 (V1.p1), wild type (Neisseria meningitidis, UniProt Q9JXV4 20-274); assay: SPR; conditions: both partners purified
T1 construct: also called V1 fHbp; fHbp
T1 sequence: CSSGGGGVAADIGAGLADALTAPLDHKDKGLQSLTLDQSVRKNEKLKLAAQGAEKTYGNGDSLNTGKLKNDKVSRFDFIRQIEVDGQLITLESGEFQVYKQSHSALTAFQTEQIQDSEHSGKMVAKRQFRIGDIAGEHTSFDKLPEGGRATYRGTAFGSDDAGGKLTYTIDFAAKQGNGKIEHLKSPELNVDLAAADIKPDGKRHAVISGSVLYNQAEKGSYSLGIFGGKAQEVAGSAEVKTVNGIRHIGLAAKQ

[19] = target: T1, Factor H binding protein, variant group …; assay: not stated; dose response curve of mfH67 binding V1 fHbp (Fig. S2); conditions: both partners purified

Molecule: human fH67 with His337 and Arg341 replaced by the murine residues (domain or fragment)
- Kd [1]: 7 µM

Molecule: human factor H CCP domains 6 and 7 (domain or fragment)
- Kd [2]: 0.0019 µM
- fold increase in KD relative to wild type [3]: 200 fold
- fold reduction in binding relative to wild type [4]: > 5 fold
- Kd [5]: 0.0028 µM
- fold reduction in binding relative to wild type [6]: > 5 fold
- Kd [7]: 1.3 µM
- fold reduction in binding relative to wild type [8]: > 5 fold
- fold reduction in binding relative to wild type [9]: > 5 fold
- fold increase in KD relative to wild type [10]: 7 fold
- fold increase in KD relative to wild type [11]: 40 fold
- fold increase in strength of binding relative to wild type [12]: 100 fold
- Kd [1]: 0.0022 µM
- fold increase in KD relative to wild type [13]: 10 fold
- fold reduction in binding relative to wild type [14]: > 5 fold
- fold increase in binding relative to wild type [15]: 5 fold

Molecule: human factor H CCP domains 6 and 7 K351R; Y352K
- Kd [16]: 33 µM
- Kd [17]: 44 µM

B1: human fH67 with Lys351 and Tyr352 replaced by the murine residues (domain or fragment)
chain: TLKPCDYPDIKHGGLYHENMRRPYFPVAVGRKYSYYCDEHFETPSGSYWDHIHCTQDGWSPAVPCLRKCYFPYLENGYNQNHGRKFVQGKSIDVACHPGYALPKAQTTVTCMENGWSPTPRCI
- Kd [18]: 2.8 ± 0.5 µM

B2: murine factor H CCP domains 6 and 7 (domain or fragment)
chain: LKPCEFPQFKYGRLYYEESLRPNFPVSIGNKYSYKCDNGFSPPSGYSWDYLRCTAQGWEPEVPCVRKCVFHYVENGDSAYWEKVYVQGQSLKVQCYNGYSLQNGQDTMTCTENGWSPPPKCI
notes: also called mfH67; mfH; source: cloned into pET-15b; expressed and purified using the method described previously [40]
- fold higher KD than hfH [19]: > 10000 fold
